Experimental data as given in patent US20260258149A1 (BIONTECH, published 2026).
Several values for one entry are separate records, joined by “and”; a condition that tells them apart may be missing. Equal entries are not always repeated.

Legend:
[1] = target: T1, Bovine Submaxillary Mucin (BSM) (bovine); experiment: ELISA on BSM-coated wells (3 ug/mL), normalised dose response
T1 construct: Glycoprotein carrier of STn; also called BSM mucin; non-biotinylated BSM
Experimental: (§1) In order to evaluate the antibody binding to the target antigen STn, we employed an in vitro assay using a mucin that naturally expresses STn: Bovine Submaxillary Mucin (BSM). The humanized variants (V1, V2 and V3) were incubated using BSM-coated wells and binding was evaluated using ELISA assay.
(§2) An ELISA-assay was performed using Bovine Submaxillary Mucin (BSM). 96 well plates were coated using BSM [3 ug/mL], dissolved in 1×PBS. Absorbance was detected using a microplate reader at 450 nm. Absorbance values were normalized against the background and plotted as a % of the dose response effect versus the antibody dose (log scale) as shown in the graph. The EC50 (in ug/mL) was calculated for each condition.

[2] = target: T1, Bovine Submaxillary Mucin (BSM); experiment: ELISA on BSM, OD against antibody concentration
[3] = target: T1, Bovine Submaxillary Mucin (BSM); experiment: ELISA on BSM-coated wells
Experimental: as §1, §2

EC50 [1] | EC50 (read off the curve) [2] | fold decrease in EC50 compared to V1 and V3 clones [3] | Binder
0.324 µg/mL and 0.457 µg/mL | ~0.2 µg/mL | – | humanized anti-STn antibody clone V1 (antibody, V domains shown, Humanized variant of L2A5; Variable domains were cloned into Absolute Antibody vectors 'of the appropriate species and type' and expressed in HEK 293; also called CBS-V1) VH: QVQLQESGPGLVKPSQTLSLTCTVIGYSITSGYYWNWIRQPPGKGLEWIGSINYDGSNIYNPSLKSRVTISRDTSKNQFSLKLSSVTAADTAVYYCARGGDYWGQGTTVTVSS VL: EIVLTQSPATLSLSPGERATLSCSASSSVSYMHWFQQKPGQAPRRWIYDTSKRATGVPARFSGSGSGTDYTLTISSLEPEDFAAYYCQQWSSDPPMLTFGGGTKLEIK
0.0665 µg/mL and 0.137 µg/mL | – | 3 fold | humanized anti-STn antibody clone V2 (antibody, V domains shown, Humanized variant of L2A5; also called CBS-V2) VH: QVQLQESGPGLVKPSQTLSLTCSVIGYSITSGYYWNWIRQPPGKGLEWIGSINYDGSNIYNPSLKDRVTISRDTSKNQFSLKLSSVTAADTAVYYCARGGDYWGQGTTVTVSS VL: DIVLTQSPAILSLSPGERATLSCSASSSVSYMHWFQQKSGQAPKRWIYDTSKLASGVPARFSGSGSGTDYTLTISSLEAEDFAAYYCQQWSSDPPMLTFGGGTKLEIK
0.344 µg/mL and 0.449 µg/mL | – | – | humanized anti-STn antibody clone V3 (antibody, V domains shown, Humanized variant of L2A5) VH: QVQLQESGPGLVKPSQTLSLTCSVIGYSITSGYYWNWIRQPPGKGLEWIGSINYDGSNIYNPSLKDRVTISRDTSKNQFSLKLSSVTAADTAVYYCARGGDYWGQGTTVTVSS VL: EIVLTQSPATLSLSPGERATLSCSASSSVSYMHWFQQKPGQAPRRWIYDTSKRATGVPARFSGSGSGTDYTLTISSLEPEDFAAYYCQQWSSDPPMLTFGGGTKLEIK
